Assays:
[1] = target: PF3D7_0220000 recombinant protein with a stop in the second position of the KKVRF motif (Plasmodium falciparum); experiment: ELISA; plates coated with 25 pmol/well of each recombinant Pip in PBS overnight at 4 °C; biotin-PfPP1 4 pmol/well in solution
[2] = target: PF3D7_0919900 recombinant protein, KSVSF to KSASA (Plasmodium falciparum); experiment: as above

biotin labeled PfPP1 (from UniProt Q8ILV1 1-304) (enzyme)
decrease of the binding against the wild protein (100 %) [1]: 86% | decrease of the binding against the wild protein (100 %) [2]: 70%
